Results from the supplement of paper PMC9170038.

Test system: MS2 coat protein
Assay: apparent KD of MS2 coat protein; designed switch direction (-1 OFF switch, 1 ON switch): 1; higher = weaker reporter binding
Procedure, shortened: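 Stalled E. coli RNA polymerase transcribed designed RNA switches on Illumina chips, which were then titrated with SNAP-549-labelled MS2 coat protein, doubling from 0.7 or 1.5 nM to 3 µM. Steps lasted from 0.8–1.5 h at the lowest concentration to 10–20 min at the highest. The apparent KD is each design's median over clusters of curve-fitted normalised fluorescence.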

[1] = input ligand: microRNA oligo, concentration not stated
[2] = Eterna round: R95, input ligand: FMN 200 uM
[3] = Eterna round: R95, input ligand: microRNA oligo, concentration not stated
[4] = Eterna round: R95, input ligand: none

| Sequence | apparent KD of MS2 coat protein (input ligand: FMN 200 uM) | apparent KD of MS2 coat protein [1] | apparent KD of MS2 coat protein (input ligand: none) | apparent KD of MS2 coat protein [2] | apparent KD of MS2 coat protein [3] | apparent KD of MS2 coat protein [4] |
| --- | --- | --- | --- | --- | --- | --- |
| ACAUGAGACCUAGGAUAUCUUGUACCUACAUGUGACAUGAGGAUCACCCAUGUGGUAAGUAUGAGAGAGAAGGAGGAGAUAUGU [Equivalance 54 - Jieux - Same State NG 2] (Eterna round: R96, puzzle: Same State NG 2) | 0.0154 µM | 0.0123 µM | 0.0176 µM | – | – | – |
| AAAACAUGACGAGGAUAUGGAACAUGAGGAUCACCCAUGUAUGUUCCAUAACGCGAAUGACGAAUCCAGAAGGCGUCGUGAAAA [Mat - Same State NG 2 - JL mod - D27] (Eterna round: R96, puzzle: Same State NG 2) | 0.0251 µM | 0.181 µM | 0.272 µM | – | – | – |
| AUUGCUUACGCAGGAUAUGAUGCGAAAAUUGCGUCAGAAGGGUGAAGUGACUCGUUGCAACAGGACAUGAGGAUCACCCAUGUC [SameState NG1 #91] (Eterna round: R96, puzzle: Same State NG 1) | 0.089 µM | 0.127 µM | 0.141 µM | – | – | – |
| AGUCCAGCCUGAGCUGGACAAAAGCAUGUACAUGAGGAUCACCCAUGUUCAUGUACAAGCUUUUUGCUCGUCUUAUC [salish99_208a_r3_058] (puzzle: Sensor for hsa-mir-208a) | – | – | – | 0.578 µM | 0.0166 µM | 0.677 µM |
| ACAAGACAGGGAGGAUAUAGCUGUUCAUCAAAGUUAGAAGGCUCGUACACAUGAGGAUCACCCAUGUUGUCGGCAGUCGACUGA [Eternabot solution 42] (Eterna round: R96, puzzle: Same State NG 1) | 0.00744 µM | 0.00967 µM | 0.0122 µM | – | – | – |
| GAGAGGAUAUGGAGAGGAUCACCCUCUAGAAGGCUCGAAGGAGAGGAUAUGGAGAGGAUCACCCUCUAGAAGGCUCACUUCUCU [pwkr ssNG3 DX 2xF5 +2xFMN.6] (Eterna round: R96, puzzle: Same State NG 3) | 0.256 µM | 0.105 µM | 0.156 µM | – | – | – |
| CAAGAAAACGCAGGAUAUACCCGAACAACCCGGGUAGAAGGGUGACACAUGAGGAUCACCCAUGUACAUGGCAUUAGCCAUGGA [Esusxebeis] (Eterna round: R96, puzzle: Same State NG 1) | 1.02 µM | 0.262 µM | 0.43 µM | – | – | – |
| AAGGGAUGAGCGUAGGAUAUAGGAGAAGUGACAUGAGGAUCACCCAUGUAGGAGGAGGGAUGAGACUAGAAGGACGAGGUAGGAG [JR_SS2_Sub060] (puzzle: Same State 2) | – | – | – | 0.0436 µM | 0.0567 µM | 0.0768 µM |
| AGAGGAGGCGCAGGAUAUACGACGGAGGACGAGGUAGAAGGGUGCAUGCGAUAACAUGAGGAUCACCCAUGUACCGCGCGACGA [AK SSNG1-V2-17.1] (Eterna round: R96, puzzle: Same State NG 1) | 0.122 µM | 0.0249 µM | 0.0456 µM | – | – | – |
| GCUCGAUGAGCGAUUUACAUGAGGAUCACCCAUGUACGUGGGCAGGAUAUUUACGUGCUUUGUGUAGAGAAGGGCCCAUCGAGC [SameState NG3 #72] (Eterna round: R96, puzzle: Same State NG 3) | 0.107 µM | 0.309 µM | 0.546 µM | – | – | – |
| GGUAGGUUACUACCAAACAUGAGGAUCACCCAUGUAAAUGGGAAGGAUAUGGUACCUAUUUGGUACCAGAAGGUCUAAUUAAUU [JL Fiskers NG3ss - 2 mod 1] (Eterna round: R96, puzzle: Same State NG 3) | 0.332 µM | 0.479 µM | 0.553 µM | – | – | – |
| CUGAGCGAUCUAGGAUAUCACGUCGAUUAGACGUGAGAAGGAGAUCAUAACAUGAGGAUCACCCAUGUAUUACAUGAAGCUCAG [SSNG1/6-A2] (Eterna round: R96, puzzle: Same State NG 1) | 0.0175 µM | 0.00915 µM | 0.0196 µM | – | – | – |
| AAACAUGAGCGAGGAUAUACGGAGGAUCACCCUGUAGAAGGCGCAUGUAAAACAACAUGAGGAUCACCCAUGUCAUGUACAUGA (Eterna round: R96, puzzle: Same State NG 1) | 0.0248 µM | 0.0234 µM | 0.0336 µM | – | – | – |
| UCUAUUGUGGUAGGAUAUCUAGGAUAUGGGAAGAGCUAAGCUUGGAAGUCACUUCACCCAGAAGGAGAGAAGGACCACACACUU [pwkr ssNG2 2FMN + F9.8] (Eterna round: R96, puzzle: Same State NG 2) | 0.564 µM | 0.121 µM | 0.225 µM | – | – | – |
| ACCGCGUUUCGCGCCUACAUGAGGAUCACCCAUGUUUGUAGGCAGGAUAUCGUCCGCUCUGCGGGCGAGAAGGGCUGUUGUGGU [salish99_SSNG3_R04_028] (Eterna round: R96, puzzle: Same State NG 3) | 0.0493 µM | 0.0429 µM | 0.0608 µM | – | – | – |
| UUACUCAUGUAAGGAUAUGCAGCCGUUUCGGCUGCAGAAGGUACUAUAAUACAUGAGGAUCACCCAUGUCUCUAUUAUUUAGUU [JL SSNG1 1.43] (Eterna round: R96, puzzle: Same State NG 1) | 0.151 µM | 0.0396 µM | 0.0527 µM | – | – | – |
| GUAUCUACAGGUUUUUUAGCUCGUCUGAUACAUGAGGAUCACCCAUGUUAUAGCCCUGUGCUUGCGCAGGGCUGAGG [Sensor for hsa-mir-208a ( MOD of Tearor v.4 )] (puzzle: Sensor for hsa-mir-208a) | – | – | – | 0.0476 µM | 0.0341 µM | 0.0493 µM |
| AUAAAACAUGAGGAUCACCCAUGUCAACAAAGUCGAGGAUAUUGGCAAAUAAAAUAAGAACCAGAAGGCGAAUAAU [salish99_ss1_r3_050] (puzzle: Same State 1) | – | – | – | 0.0175 µM | 0.0231 µM | 0.0234 µM |
| UAAAAACAUGAGGAUCACCCAUGUGAAAAUAUGGGAGGAUAUACAAAGACGAGAGUCAAAGUAGAAGGCCUAAAAU [Mat - Same State 1 - Eli mod - D88] (Eterna round: R96, puzzle: Same State 1) | 0.0219 µM | 0.0683 µM | 0.0866 µM | – | – | – |
| UGUUGUAUUACAGGAUAUCUAUUAGAUUUAUUUAGAGAAGGGUAUUCACAUGAGGAUCACCCAUGUAUAUACGAGGAAGUUGUG [JMF's solution 86] (Eterna round: R96, puzzle: Same State NG 1) | – | 0.0402 µM | – | – | – | – |
| AGCUAUCGAAAACGAUAGCAUAAGCAUGUACAUGAGGAUCACCCAUGUCAUGUACAAGCUUUUUGCUCGUCUUAAAA [JL zipper 27] (Eterna round: R96, puzzle: Sensor for hsa-mir-208a) | 0.411 µM | 0.0143 µM | 0.426 µM | – | – | – |
| AAAAUACAUGAGGAUCACCCAUGUCUAAAGAACGGAGGAUAUAGGCGUGCAAAACACGCACUAGAAGGCUGGGUGC [Eserus] (puzzle: Same State 1) | – | – | – | 0.144 µM | 0.0923 µM | 0.22 µM |
| AGAGGAGGCGCAGGAUAUACGACGGAGGACGUGGUAGAAGGGUGCAUGCGAAAACAUGAGGAUCACCCAUGUACCGCGCGACGA [ssng1 c] (Eterna round: R96, puzzle: Same State NG 1) | 0.816 µM | 0.0301 µM | 0.126 µM | – | – | – |
| GGCCUGUAGACAGGAUAUGGGAAAGGAAGUGUACCAGAAGGGUCAAAGAUAUAGGUGGACAUGAGGAUCACCCAUGUAAUUAAC [PowerStrip SSNG 1.21] (Eterna round: R96, puzzle: Same State NG 1) | 0.0566 µM | 0.0705 µM | 0.105 µM | – | – | – |
| GUUACAUGAGGAUCACCCAUGUAUGUGUGGGAGUAAGUGUCUUAGGAUAUCUAGGAUUUAAUUUAAGAGAAGGAAGAUUGUUGU [JMF's solution 50] (Eterna round: R96, puzzle: Same State NG 3) | 0.0897 µM | 0.0459 µM | 0.0774 µM | – | – | – |
| AGAUGUUAAUCAGGAUAUGGGCACAUGAGGAUCACCCAUGUAAAUUCGAUACUAUGUGGUCACGUCUAGAAGGGAUGGCUAACA [SameState NG2 #82] (Eterna round: R96, puzzle: Same State NG 2) | 0.189 µM | 0.158 µM | 0.25 µM | – | – | – |
| AGCUAUUAAUCAGGAUAUGGUCACAUGAGGAUCACCCAUGUGUAGAUGAUAAAAUGUGGUCAAGACUAGAAGGGAUUGCUAACA [SameState NG2 #62] (Eterna round: R96, puzzle: Same State NG 2) | 0.125 µM | 0.0493 µM | 0.0959 µM | – | – | – |
| GUGCAACCGUGUGAGGAUAUCGGUGAAUAAACAUGAGGAUCACCCAUGUCCGAAGCUCGGUUCUCCGAGAAGGCGCACAGUUGCA [Same State 2 - Mod of Erisin v.4] (puzzle: Same State 2) | – | – | – | 0.0238 µM | 0.116 µM | 0.159 µM |
| AGGAAACAUGAGGAUCACCCAUGUAUCGAGCCGCGAGGAUAUGGGUAUCAAAGGCGAGGAUCAGAAGGUGCAGGCG [Eseddierve] (puzzle: Same State 1) | – | – | – | 0.235 µM | 0.0549 µM | 0.153 µM |
| UACAAUCUAUCUCAGGAUAUCAUGUCAAAGACAUGAGGAUCACCCAUGUACCAGGAAACUGGUUAUGAGAAGGGAGAUAGAUUGA [Mat - Same State 2 - Mod - D25] (puzzle: Same State 2) | – | – | – | 0.119 µM | 0.0591 µM | 0.39 µM |
